# From patent US20230357446A1
# Molecular target: CD22 on WSU-DLCL2 cells (WSU-DLCL2/CD22^WT; absent from the CRISPR-edited WSU-DLCL2/CD22^KO line) (human) (UniProt P20273)
# Assay: cell-based or functional assay
substance,measurement,value
REGN5837 (bispecific antibody),% CD22^KO Survival; ratio CD22^KO:CD22^WT 20:80; 5 pM R1979 +0.46 nM R5837,29.9%
same,% CD22^KO Survival; ratio CD22^KO:CD22^WT 20:80; 5 pM R1979 +2.8 nM R5837,25.2%
same,% CD22^KO Survival; ratio CD22^KO:CD22^WT 20:80; 5 pM R1979 +16.7 nM R5837,20.9%
same,% CD22^KO Survival; ratio CD22^KO:CD22^WT 40:60; 5 pM R1979 +0.46 nM R5837,31.9%
same,% CD22^KO Survival; ratio CD22^KO:CD22^WT 40:60; 5 pM R1979 +2.8 nM R5837,24.1%
same,% CD22^KO Survival; ratio CD22^KO:CD22^WT 40:60; 5 pM R1979 +16.7 nM R5837,19.9%
same,% CD22^KO Survival; ratio CD22^KO:CD22^WT 60:40; 5 pM R1979 +0.46 nM R5837,33.9%
same,% CD22^KO Survival; ratio CD22^KO:CD22^WT 60:40; 5 pM R1979 +2.8 nM R5837,28.2%
same,% CD22^KO Survival; ratio CD22^KO:CD22^WT 60:40; 5 pM R1979 +16.7 nM R5837,19.1%
same,% CD22^KO Survival; ratio CD22^KO:CD22^WT 80:20; 5 pM R1979 +0.46 nM R5837,37.2%
same,% CD22^KO Survival; ratio CD22^KO:CD22^WT 80:20; 5 pM R1979 +2.8 nM R5837,28.8%
same,% CD22^KO Survival; ratio CD22^KO:CD22^WT 80:20; 5 pM R1979 +16.7 nM R5837,26.9%
same,% CD22^KO Survival; ratio CD22^KO:CD22^WT 100:0; 5 pM R1979 +0.46 nM R5837,60.1%
same,% CD22^KO Survival; ratio CD22^KO:CD22^WT 100:0; 5 pM R1979 +2.8 nM R5837,56%
same,% CD22^KO Survival; ratio CD22^KO:CD22^WT 100:0; 5 pM R1979 +16.7 nM R5837,45.4%
same,% CD22^WT Survival; ratio CD22^KO:CD22^WT 0:100; 5 pM R1979 +0.46 nM R5837,28.5%
same,% CD22^WT Survival; ratio CD22^KO:CD22^WT 0:100; 5 pM R1979 +2.8 nM R5837,22.4%
same,% CD22^WT Survival; ratio CD22^KO:CD22^WT 0:100; 5 pM R1979 +16.7 nM R5837,12.6%
same,% CD22^WT Survival; ratio CD22^KO:CD22^WT 20:80; 5 pM R1979 +0.46 nM R5837,19.3%
same,% CD22^WT Survival; ratio CD22^KO:CD22^WT 20:80; 5 pM R1979 +2.8 nM R5837,16.4%
same,% CD22^WT Survival; ratio CD22^KO:CD22^WT 20:80; 5 pM R1979 +16.7 nM R5837,11.2%
same,% CD22^WT Survival; ratio CD22^KO:CD22^WT 40:60; 5 pM R1979 +0.46 nM R5837,20.1%
same,% CD22^WT Survival; ratio CD22^KO:CD22^WT 40:60; 5 pM R1979 +2.8 nM R5837,12.8%
same,% CD22^WT Survival; ratio CD22^KO:CD22^WT 40:60; 5 pM R1979 +16.7 nM R5837,9.45%
same,% CD22^WT Survival; ratio CD22^KO:CD22^WT 60:40; 5 pM R1979 +0.46 nM R5837,19.1%
same,% CD22^WT Survival; ratio CD22^KO:CD22^WT 60:40; 5 pM R1979 +2.8 nM R5837,12.4%
same,% CD22^WT Survival; ratio CD22^KO:CD22^WT 60:40; 5 pM R1979 +16.7 nM R5837,8.6%
same,% CD22^WT Survival; ratio CD22^KO:CD22^WT 80:20; 5 pM R1979 +0.46 nM R5837,20.6%
same,% CD22^WT Survival; ratio CD22^KO:CD22^WT 80:20; 5 pM R1979 +2.8 nM R5837,13.1%
same,% CD22^WT Survival; ratio CD22^KO:CD22^WT 80:20; 5 pM R1979 +16.7 nM R5837,7.95%
same,CD4+ T cell activation (MFI of CD25); ratio CD22^KO:CD22^WT 0:100; 5 pM R1979 +0.46 nM R5837,13400 MFI
same,CD4+ T cell activation (MFI of CD25); ratio CD22^KO:CD22^WT 0:100; 5 pM R1979 +2.8 nM R5837,14800 MFI
same,CD4+ T cell activation (MFI of CD25); ratio CD22^KO:CD22^WT 0:100; 5 pM R1979 +16.7 nM R5837,17700 MFI
same,CD4+ T cell activation (MFI of CD25); ratio CD22^KO:CD22^WT 20:80; 5 pM R1979 +0.46 nM R5837,11200 MFI
same,CD4+ T cell activation (MFI of CD25); ratio CD22^KO:CD22^WT 20:80; 5 pM R1979 +2.8 nM R5837,14400 MFI
same,CD4+ T cell activation (MFI of CD25); ratio CD22^KO:CD22^WT 20:80; 5 pM R1979 +16.7 nM R5837,15300 MFI
same,CD4+ T cell activation (MFI of CD25); ratio CD22^KO:CD22^WT 40:60; 5 pM R1979 +0.46 nM R5837,11800 MFI
same,CD4+ T cell activation (MFI of CD25); ratio CD22^KO:CD22^WT 40:60; 5 pM R1979 +2.8 nM R5837,13200 MFI
same,CD4+ T cell activation (MFI of CD25); ratio CD22^KO:CD22^WT 40:60; 5 pM R1979 +16.7 nM R5837,13600 MFI
same,CD4+ T cell activation (MFI of CD25); ratio CD22^KO:CD22^WT 60:40; 5 pM R1979 +0.46 nM R5837,8520 MFI
same,CD4+ T cell activation (MFI of CD25); ratio CD22^KO:CD22^WT 60:40; 5 pM R1979 +2.8 nM R5837,10900 MFI
same,CD4+ T cell activation (MFI of CD25); ratio CD22^KO:CD22^WT 60:40; 5 pM R1979 +16.7 nM R5837,12000 MFI
same,CD4+ T cell activation (MFI of CD25); ratio CD22^KO:CD22^WT 80:20; 5 pM R1979 +0.46 nM R5837,7520 MFI
same,CD4+ T cell activation (MFI of CD25); ratio CD22^KO:CD22^WT 80:20; 5 pM R1979 +2.8 nM R5837,8280 MFI
same,CD4+ T cell activation (MFI of CD25); ratio CD22^KO:CD22^WT 80:20; 5 pM R1979 +16.7 nM R5837,9850 MFI
same,CD4+ T cell activation (MFI of CD25); ratio CD22^KO:CD22^WT 100:0; 5 pM R1979 +0.46 nM R5837,4280 MFI
same,CD4+ T cell activation (MFI of CD25); ratio CD22^KO:CD22^WT 100:0; 5 pM R1979 +2.8 nM R5837,4060 MFI
same,CD4+ T cell activation (MFI of CD25); ratio CD22^KO:CD22^WT 100:0; 5 pM R1979 +16.7 nM R5837,3150 MFI
same,CD8+ T cell activation (MFI of CD25); ratio CD22^KO:CD22^WT 0:100; 5 pM R1979 +0.46 nM R5837,7920 MFI
same,CD8+ T cell activation (MFI of CD25); ratio CD22^KO:CD22^WT 0:100; 5 pM R1979 +2.8 nM R5837,9030 MFI
same,CD8+ T cell activation (MFI of CD25); ratio CD22^KO:CD22^WT 0:100; 5 pM R1979 +16.7 nM R5837,9880 MFI
same,CD8+ T cell activation (MFI of CD25); ratio CD22^KO:CD22^WT 20:80; 5 pM R1979 +0.46 nM R5837,6310 MFI
same,CD8+ T cell activation (MFI of CD25); ratio CD22^KO:CD22^WT 20:80; 5 pM R1979 +2.8 nM R5837,8410 MFI
same,CD8+ T cell activation (MFI of CD25); ratio CD22^KO:CD22^WT 20:80; 5 pM R1979 +16.7 nM R5837,8660 MFI
same,CD8+ T cell activation (MFI of CD25); ratio CD22^KO:CD22^WT 40:60; 5 pM R1979 +0.46 nM R5837,6140 MFI
same,CD8+ T cell activation (MFI of CD25); ratio CD22^KO:CD22^WT 40:60; 5 pM R1979 +2.8 nM R5837,7920 MFI
same,CD8+ T cell activation (MFI of CD25); ratio CD22^KO:CD22^WT 40:60; 5 pM R1979 +16.7 nM R5837,7880 MFI
same,CD8+ T cell activation (MFI of CD25); ratio CD22^KO:CD22^WT 60:40; 5 pM R1979 +0.46 nM R5837,4800 MFI
same,CD8+ T cell activation (MFI of CD25); ratio CD22^KO:CD22^WT 60:40; 5 pM R1979 +2.8 nM R5837,6620 MFI
same,CD8+ T cell activation (MFI of CD25); ratio CD22^KO:CD22^WT 60:40; 5 pM R1979 +16.7 nM R5837,6670 MFI
same,CD8+ T cell activation (MFI of CD25); ratio CD22^KO:CD22^WT 80:20; 5 pM R1979 +0.46 nM R5837,4250 MFI
same,CD8+ T cell activation (MFI of CD25); ratio CD22^KO:CD22^WT 80:20; 5 pM R1979 +2.8 nM R5837,4890 MFI
same,CD8+ T cell activation (MFI of CD25); ratio CD22^KO:CD22^WT 80:20; 5 pM R1979 +16.7 nM R5837,4970 MFI
same,CD8+ T cell activation (MFI of CD25); ratio CD22^KO:CD22^WT 100:0; 5 pM R1979 +0.46 nM R5837,3000 MFI
same,CD8+ T cell activation (MFI of CD25); ratio CD22^KO:CD22^WT 100:0; 5 pM R1979 +2.8 nM R5837,2510 MFI
same,CD8+ T cell activation (MFI of CD25); ratio CD22^KO:CD22^WT 100:0; 5 pM R1979 +16.7 nM R5837,2160 MFI
